Molecular target: 破伤风类毒素 (tetanus toxoid) (破伤风杆菌 (Clostridium tetani), UniProt P04958 2-1315)
Sequence (P04958 2-457 limits assumed, chain 1 of 2): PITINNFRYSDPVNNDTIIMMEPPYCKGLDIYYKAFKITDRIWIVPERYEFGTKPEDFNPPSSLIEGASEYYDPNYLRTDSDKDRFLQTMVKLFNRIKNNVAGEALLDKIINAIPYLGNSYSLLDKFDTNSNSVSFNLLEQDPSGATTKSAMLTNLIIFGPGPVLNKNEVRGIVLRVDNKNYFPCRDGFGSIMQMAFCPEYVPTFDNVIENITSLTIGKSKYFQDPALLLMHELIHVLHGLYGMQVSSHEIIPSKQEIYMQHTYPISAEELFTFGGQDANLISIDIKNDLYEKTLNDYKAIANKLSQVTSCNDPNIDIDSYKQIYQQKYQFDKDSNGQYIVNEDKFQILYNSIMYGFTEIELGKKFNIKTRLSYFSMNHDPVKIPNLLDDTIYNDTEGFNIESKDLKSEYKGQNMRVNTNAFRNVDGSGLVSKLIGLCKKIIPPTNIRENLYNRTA
Sequence (P04958 458-1315 limits assumed, chain 2 of 2): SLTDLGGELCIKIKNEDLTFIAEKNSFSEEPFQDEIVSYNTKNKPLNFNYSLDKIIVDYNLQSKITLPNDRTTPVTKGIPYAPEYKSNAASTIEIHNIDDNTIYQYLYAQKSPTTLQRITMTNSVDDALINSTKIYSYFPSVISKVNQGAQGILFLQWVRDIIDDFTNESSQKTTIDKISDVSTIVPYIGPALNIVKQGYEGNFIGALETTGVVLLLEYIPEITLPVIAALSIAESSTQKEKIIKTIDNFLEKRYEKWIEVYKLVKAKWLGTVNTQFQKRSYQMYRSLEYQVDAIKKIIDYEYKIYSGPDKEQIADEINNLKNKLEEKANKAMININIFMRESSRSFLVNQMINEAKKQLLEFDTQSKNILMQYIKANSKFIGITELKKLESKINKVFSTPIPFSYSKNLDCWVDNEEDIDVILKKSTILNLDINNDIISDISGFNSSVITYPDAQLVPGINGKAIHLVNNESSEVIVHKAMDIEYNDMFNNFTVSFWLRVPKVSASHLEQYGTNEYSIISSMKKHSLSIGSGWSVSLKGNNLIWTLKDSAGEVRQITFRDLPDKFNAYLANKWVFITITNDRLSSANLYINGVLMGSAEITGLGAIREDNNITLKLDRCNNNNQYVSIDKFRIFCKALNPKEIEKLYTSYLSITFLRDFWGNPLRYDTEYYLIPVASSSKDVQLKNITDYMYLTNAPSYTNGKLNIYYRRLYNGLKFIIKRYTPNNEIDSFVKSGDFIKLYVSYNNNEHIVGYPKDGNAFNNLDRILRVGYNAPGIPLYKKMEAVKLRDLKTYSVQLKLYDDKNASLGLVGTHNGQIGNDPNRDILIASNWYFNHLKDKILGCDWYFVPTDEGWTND

B1: TRN0010抗体 (全人源抗破伤风毒素中和抗体) (antibody, V domains shown)
VH: QVQLQESGPGLVKPSETLSLRCTVSGGSISSYYWSWFRQPPGKGLEWIGYVHYSGSTNYNPSLKSRFTLSVDTSKSQFSLRLRSVTAADTAIYYCARDKYQTDVSDIWGQGTVVTVSS
VL: DIQMTQSPGTLSLSPGERATLSCRASQSITSSFLAWYQQKPGQAPRLLIYGASSRATGIPDRFSGSGSGTDFILTISRLEPEDFAVYYCQQYDTSRTFGQGTTVEIK
- Kd: 3.68 nM
- koff: 0.000153 s⁻¹
- kon: 41500 M⁻¹ s⁻¹

Source: patent CN108314731A (ZHUHAI TAINUO MAIBO BIOTECHNOLOGY CO LTD; GUANGZHOU …, dated 2018)
